Experimental data from the supplement of paper PMC10126150.
± gives the standard deviation of the averaged measurements.

test system: ATP; experiment: switch fluorescence ratio, 500 uM ATP over buffer (Cy3 cluster intensity, sum of 5 cycles each) (fold (ratio)); higher = stronger signal-on switching upon ATP binding; sequences stand for … in TCGTCGGCAGCGTCAGATGTGTATAAGAGACAGTTTTTTTTTTTTTTTTTTTTTTTTT…TC; conditions: aptamer strand: ATP DNA aptamer (quencher-CACCTGGGGGAGTATTGCGGAGGAAGG + anchor), 100 nM annealed; ATP concentration: 500 uM
In short: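 Values give the fluorescence ratio for each switch-domain sequence, averaged from per-cluster ratios of summed target-cycle to summed buffer-cycle Cy3 intensity. The Cy3-labelled switching-strand clusters sat on a modified Illumina MiSeq flow-cell, were annealed to 100 nM quencher-labelled ATP aptamer, and were imaged in selection buffer, then after 15 min with 500 uM ATP at 22 °C. Five cycles ran with NaOH stripping and re-annealing between them, and clusters outside 100-1000 RFU were excluded.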
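Further: ATP exposure 15 min at 22 °C before imaging.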

In order of rising switch fluorescence ratio:
1. ATAAGTGGCA  0.944 ± 0.027
2. AGTTCGGTTT  0.9581 ± 0.0039
3. ATAAGTGTGT  0.958 ± 0.047
4. AGTTGGAGCT  0.95964 ± 9.2e-05
5. ATAAGGCTCG  0.966 ± 0.011
6. AGTTTTGGGT  0.967 ± 0.02
7. ATAAGTTGCT  0.968 ± 0.024
8. AGTTCTAGGG  0.971 ± 0.031
9. AGTTTCCTAG  0.971 ± 0.022
10. ATAAAGGCGA  0.975 ± 0.043
11. ATAAGGCATG  0.975 ± 0.021
12. ATAAGGAGAT  0.9759 ± 0.0042
13. AGTTAGTGGT  0.978 ± 0.023
14. AGTTTGGTCA  0.98 ± 0.021
15. AGTTAGTAGT  0.981 ± 0.021
16. AGTTAATTTG  0.9823 ± 0.0097
17. AGTTGGGGAA  0.983 ± 0.031
18. ATAAGTGGG  0.983 ± 0.018
19. AGTTATAAAG  0.986 ± 0.037
20. AGTTGCTCCT  0.986 ± 0.024
21. AGTTGTGGAG  0.986 ± 0.018
22. ATAAGACCCG  0.98609 ± 0.00056
23. AGTTGAACCC  0.9872 ± 0.0016
24. ATAAAGGGCT  0.988 ± 0.054
25. AGTTGATTGT  0.9895 ± 0.0076
26. ATAAAGTATG  0.99 ± 0.018
27. ATAAGTGTTA  0.9898 ± 0.0031
28. AGTTTTGAAG  0.9906 ± 0.0096
29. AGTTTGCTTG  0.993 ± 0.025
30. AGTTTTGAG  0.9928 ± 0.0097
31. ATAAAGGTTG  0.993 ± 0.016
32. ATAATATGAG  0.993 ± 0.056
33. AGTTTGCTAG  0.994 ± 0.034
34. AGTTATGTTG  0.995 ± 0.021
35. ATAAATACAG  0.9959 ± 0.0042
36. AGTTAATGAC  0.997 ± 0.013
37. AGTTTGGACA  0.997 ± 0.015
38. ATAATCTGGT  0.9965 ± 0.0049
39. AGTTGGTATT  0.998 ± 0.015
40. ATAAGGGGGA  0.998 ± 0.022
41. AGTTAGGGTT  0.999 ± 0.039
42. AGTTGGCGGA  0.999 ± 0.024
43. AGTTTTTAAT  0.999 ± 0.018
44. ATAAATGTTA  0.999 ± 0.011
45. ATAAGGGGAG  0.999 ± 0.027
46. ATAATATTGT  0.999 ± 0.0022
47. AGTTATTTGG  1 ± 0.0047
48. AGTTGCGGTT  1.002 ± 0.0018
49. AGTTGGTCTA  1 ± 0.017
50. AGTTTCGGGA  1 ± 0.033
51. AGTTTCGGTC  1 ± 0.028
52. AGTTTTCAAG  1 ± 0.026
53. AGTTTTGAGG  1.001 ± 0.0016
54. AGTTTTTTAT  1 ± 0.022
55. ATAAAAAGGG  1 ± 0.029
56. ATAAAATTTT  1 ± 0.03
57. ATAAGGTAG  1.004 ± 0.0026
58. ATAATAATGG  1 ± 0.037
59. ATAATAGAGC  1 ± 0.023
60. AGTTGCTTGT  1.01 ± 0.036
61. AGTTGGGGAC  1.012 ± 0.0071
62. AGTTTATCTG  1.01 ± 0.04
63. AGTTTTGCGT  1.01 ± 0.034
64. ATAAATGTGT  1.01 ± 0.041
65. ATAACTTATA  1.011 ± 0.0041
66. ATAAGGAACG  1.01 ± 0.061
67. ATAAGTAAAG  1.01 ± 0.021
68. ATAAGTATGA  1.01 ± 0.034
69. ATAAGTTGAT  1.01 ± 0.03
70. ATAATCGGCA  1.01 ± 0.054
71. AGTTAGCTT  1.02 ± 0.072
72. AGTTAGGAAA  1.02 ± 0.032
73. AGTTGGCTTT  1.018 ± 0.008
74. AGTTGTGTGG  1.02 ± 0.023
75. AGTTTCTTAG  1.015 ± 0.0019
76. AGTTTGGGCC  1.017 ± 0.0059
77. ATAAGGGGTG  1.02 ± 0.069
78. ATAAGTTTGG  1.02 ± 0.033
79. AGTTGGAGCG  1.026 ± 0.0041
80. AGTTTAGGGT  1.03 ± 0.054
81. AGTTTTTATT  1.03 ± 0.015
82. ATAAAGTTTC  1.03 ± 0.015
83. ATAACACTTC  1.03 ± 0.015
84. ATAAGAGTCT  1.03 ± 0.094
85. ATAAGGGTTC  1.03 ± 0.043
86. AGTTCATTGG  1.04 ± 0.059
87. AGTTGGGATC  1.036 ± 0.008
88. ATAAAATTTA  1.04 ± 0.03
89. ATAACGAGTC  1.04 ± 0.15
90. ATAAGGGAAC  1.04 ± 0.017
91. AGTTCCATCG  1.05 ± 0.047
92. ATAACCGTGG  1.05 ± 0.074
93. ATAAACGACT  1.06 ± 0.024
94. ATAAGTCACG  1.06 ± 0.028
95. ATAAAAGGTG  1.1 ± 0.074
96. ATAAGGAGGA  1.1 ± 0.23
97. AGTTACGAAA  1.11 ± 0.025
98. ATAACGTAGC  1.11 ± 0.059
99. AGTTCCGAGG  1.12 ± 0.14
100. AGTTGGCAAT  1.24 ± 0.061
